Here are results for one molecule from paper PMC3688787.

Square brackets hold non-standard residues; d marks the D form. Ends that are not written are not given here. Hyp = O=C(O)[C@@H]1C[C@@H](O)CN1

What all share (assay): ELISA; ELISA-based binding assay: pVHL variant (10 µg/ml, 100 µl) coated on the plate overnight at 4°C, blocked with 5% BSA; TAMRA-labelled Hyp402-ODD peptide added at increasing concentrations, 1 h at 25°C; high salt buffer (10 mM Tris-HCl pH 8.5, 500 mM NaCl) without Arginine; fluorescence at 580 nm
In test [1] the target is pVHL F136L mutant, 19 kDa form (human).
Test [2] concerns the target pVHL N78S mutant, 19 kDa form (human).
In test [3] the target is pVHL F119L mutant, 19 kDa form (human).

B1: Hyp402-ODD target peptide of HIF-1α (peptide)
peptide: LDLEALA[Hyp]YIPADDDFQLRS
modifications: also: TAMRA (rhodamine) label, end not given here
As for B1, the fold lower affinity than the WT was 5 fold in test [1], 2 fold in test [2] and 2.5 fold in test [3].
